Experimental data: the RNAGym collection of RNA variant scans (doi:10.7554/elife.80360)

B1: Twister Ribozyme (parent)
chain: AACACUGCCAAUGCCGGUCCCAAGCCCGGAUAAAAGUGGAGGGGGCGG

Variants of: B1
Assay: self-cleavage, relative activity (ratio to wild type); higher = more cleavage; co-transcriptional

For AUCACUACCAAUGCCGGUCCCAAGCCCGGAUAAAAGUGGAGGGGGCGG, which self-cleavage is on record?
Its self-cleavage is 0.0893.

For AUCACUUCCAAUGCCGGUCCCAAGCCCGGAUAAAAGUGGAGGGGGCGG, which self-cleavage is on record?
Its self-cleavage is 0.0853.

Which self-cleavage does the source give for AGCACUGCCAAUGCCGGUCCCAAGCCCGGAUAAAAGUGGAGUGGGCGG here?
Its self-cleavage is 0.11.

For AUCACUGCCAGUGCCGGUCCCAAGCCCGGAUAAAAGUGGAGGGGGCGG, which self-cleavage is on record?
Its self-cleavage is 0.586.

Which self-cleavage does the source give for AGCACUGCCAAUGCCGGUCCCAAGCCCGGAUAAAAGUGGAGGGGGCCG here?
Its self-cleavage is 0.212.

Which self-cleavage does the source give for AUCACUGCCAAUGCCGGUCUCAAGCCCGGAUAAAAGUGGAGGGGGCGG here?
Its self-cleavage is 0.3.

With AUCACUGCCAAUGCCGGUCACAAGCCCGGAUAAAAGUGGAGGGGGCGG as the variant, how does the self-cleavage read?
Its self-cleavage is 0.08.

For AUCCCUGCCAAUGCCGGUCCCAAGCCCGGAUAAAAGUGGAGGGGGCGG, which self-cleavage is on record?
The self-cleavage was 0.0829.

With AGCACUGCCAAUGCCGGUCCCAAGCCCGGAUAAAAGUGGAGGGCGCGG as the variant, how does the self-cleavage read?
The self-cleavage was 0.212.

Which self-cleavage does the source give for AGCACUGCCAAUGCCGGUCCCAAGCCCGGAUAAAAGUGGAGGGUGCGG here?
The self-cleavage was 0.215.

For AGCACUGCCAAUGCCGGUCCCAAGCCCGGAUAAAAGUGGAGGGAGCGG, which self-cleavage is on record?
The self-cleavage was 0.316.

For AGCACUGCCAACGCCGGUCCCAAGCCCGGAUAAAAGUGGAGGGGGCGG, which self-cleavage is on record?
Its self-cleavage is 0.316.

For AUCACUGCCAAUGCUGGUCCCAAGCCCGGAUAAAAGUGGAGGGGGCGG, which self-cleavage is on record?
The self-cleavage was 0.531.

For AGCACUGCCAAUGCCGGUCCCAAGCCCGGAUAAAAGUGGAGGGGGCGA, which self-cleavage is on record?
Its self-cleavage is 0.217.

Which self-cleavage does the source give for AGCACUGCCAAUGCCGGCCCCAAGCCCGGAUAAAAGUGGAGGGGGCGG here?
The self-cleavage was 0.102.

Which self-cleavage does the source give for AUCACUGCCAAUGCCGGUCCCAAGCCCGGAUAAAAGUGGUGGGGGCGG here?
The self-cleavage was 0.154.

With AUCACUGCCAAUGCCGGUCCCAAGCCCGGAUAAAAGUGGCGGGGGCGG as the variant, how does the self-cleavage read?
The self-cleavage was 0.155.

For AUCACUGCCAAUGCCGGUCCCAAGCCCGGAUAACAGUGGAGGGGGCGG, which self-cleavage is on record?
Its self-cleavage is 0.15.

With AUCACUGCCAAUGCCGGUCCCAAGCCCGGAUAAUAGUGGAGGGGGCGG as the variant, how does the self-cleavage read?
The self-cleavage was 0.189.

For AUCACUGCCAAUACCGGUCCCAAGCCCGGAUAAAAGUGGAGGGGGCGG, which self-cleavage is on record?
The self-cleavage was 0.153.

For AUCACUGCCAAUCCCGGUCCCAAGCCCGGAUAAAAGUGGAGGGGGCGG, which self-cleavage is on record?
The self-cleavage was 0.0514.

Which self-cleavage does the source give for AUCACUGCCAAUUCCGGUCCCAAGCCCGGAUAAAAGUGGAGGGGGCGG here?
Its self-cleavage is 0.103.

Which self-cleavage does the source give for AUCACUGCCGAUGCCGGUCCCAAGCCCGGAUAAAAGUGGAGGGGGCGG here?
Its self-cleavage is 0.674.

For AGCACCGCCAAUGCCGGUCCCAAGCCCGGAUAAAAGUGGAGGGGGCGG, which self-cleavage is on record?
The self-cleavage was 0.103.

With AGCACGGCCAAUGCCGGUCCCAAGCCCGGAUAAAAGUGGAGGGGGCGG as the variant, how does the self-cleavage read?
Its self-cleavage is 0.161.

Which self-cleavage does the source give for AUCACUGCCAAUGCCGGUCCCAAGCCCGGAUCAAAGUGGAGGGGGCGG here?
Its self-cleavage is 0.581.

Which self-cleavage does the source give for AUCACUGCCAAUGCCGGUCCCAAGCCCGGAUGAAAGUGGAGGGGGCGG here?
The self-cleavage was 0.605.

For AGCACUGCCAAUGCCGGUCCCAAGCCCGGAUAAAAGGGGAGGGGGCGG, which self-cleavage is on record?
The self-cleavage was 0.173.

For AGCACUGCCAAUGCCGGUCCCAAGCCCGGAUAAAAGAGGAGGGGGCGG, which self-cleavage is on record?
The self-cleavage was 0.142.

Which self-cleavage does the source give for AUCACUGCCAAUGCCGGUCCCAAUCCCGGAUAAAAGUGGAGGGGGCGG here?
Its self-cleavage is 0.0983.

For AUCACUGCCAAUGUCGGUCCCAAGCCCGGAUAAAAGUGGAGGGGGCGG, which self-cleavage is on record?
The self-cleavage was 0.591.

For AUCACUGCCAAUGGCGGUCCCAAGCCCGGAUAAAAGUGGAGGGGGCGG, which self-cleavage is on record?
The self-cleavage was 0.0946.

Which self-cleavage does the source give for AUCACUGCCAAUGCCGGUCCCACGCCCGGAUAAAAGUGGAGGGGGCGG here?
The self-cleavage was 0.107.

With AUCACUGCCAAUGCCGGUCCCAUGCCCGGAUAAAAGUGGAGGGGGCGG as the variant, how does the self-cleavage read?
Its self-cleavage is 0.106.

Which self-cleavage does the source give for AUCACUGCCAAUGCCGGUCCCAAGCCCGGAUAGAAGUGGAGGGGGCGG here?
The self-cleavage was 0.503.

Which self-cleavage does the source give for AUCACUGCCAAUGCCGGUCCCAAGCCCAGAUAAAAGUGGAGGGGGCGG here?
Its self-cleavage is 0.409.

Which self-cleavage does the source give for AUCACUGCCAAUGCCCGUCCCAAGCCCGGAUAAAAGUGGAGGGGGCGG here?
The self-cleavage was 0.13.

With AUCACUGCCAAUGCCUGUCCCAAGCCCGGAUAAAAGUGGAGGGGGCGG as the variant, how does the self-cleavage read?
The self-cleavage was 0.309.

With AUCACUGCCAAUGCCGGUCCCAAGCCCGGAUAAAGGUGGAGGGGGCGG as the variant, how does the self-cleavage read?
The self-cleavage was 0.207.

With AUCACUGCCAAUGCCGGUCCCAAGCCCGGAUAAAUGUGGAGGGGGCGG as the variant, how does the self-cleavage read?
The self-cleavage was 0.574.

Which self-cleavage does the source give for AUCACUGCCAAUGCCGGUCCCAAGCCCGGAUAAAAGUGGAGGGGGUGG here?
The self-cleavage was 0.723.

For AUCACUGCCAAUGCCGGUCCCAAGCCCGGAUAAAAGUGGAGGGGGAGG, which self-cleavage is on record?
The self-cleavage was 0.513.

Which self-cleavage does the source give for AUCACUGCCAAUGCCGUUCCCAAGCCCGGAUAAAAGUGGAGGGGGCGG here?
Its self-cleavage is 0.0826.

For AUCACUGCCAAUGCCGCUCCCAAGCCCGGAUAAAAGUGGAGGGGGCGG, which self-cleavage is on record?
Its self-cleavage is 0.0754.

For AUCACUGCGAAUGCCGGUCCCAAGCCCGGAUAAAAGUGGAGGGGGCGG, which self-cleavage is on record?
Its self-cleavage is 0.119.

For AUCACUGCCAAUGCCGGUCCCAAGCCCGGGUAAAAGUGGAGGGGGCGG, which self-cleavage is on record?
The self-cleavage was 0.772.

Which self-cleavage does the source give for AUCACUGCCAAUGCCGGUCCCAAGCCCGGCUAAAAGUGGAGGGGGCGG here?
Its self-cleavage is 0.182.

With AUCACUGACAAUGCCGGUCCCAAGCCCGGAUAAAAGUGGAGGGGGCGG as the variant, how does the self-cleavage read?
Its self-cleavage is 0.078.

For AUCACUGCCAAUGCCGGUGCCAAGCCCGGAUAAAAGUGGAGGGGGCGG, which self-cleavage is on record?
Its self-cleavage is 0.0882.

For AUCACUGCCAAUGCCGGUCCCAAGCUCGGAUAAAAGUGGAGGGGGCGG, which self-cleavage is on record?
Its self-cleavage is 0.069.

Which self-cleavage does the source give for AUCACUGCCAAUGCCGGUCCCAAGCGCGGAUAAAAGUGGAGGGGGCGG here?
The self-cleavage was 0.128.

Which self-cleavage does the source give for AUCACUGCCAAUGCCGGUCCCUAGCCCGGAUAAAAGUGGAGGGGGCGG here?
The self-cleavage was 0.11.

With AGCACUGCCAAUGCCGGUCCCAAGCCCGGAUAAAAGUGGAGGGGUCGG as the variant, how does the self-cleavage read?
Its self-cleavage is 0.159.

For AGCACUGCCAAUGCCGGUCCCAAGCCCGGAUAAAAGUGGAGGGGACGG, which self-cleavage is on record?
Its self-cleavage is 0.338.
